Test results reported in PMC4735476, “Dataset concerning GroEL chaperonin interaction with proteins” (Data in Brief, 2016).

Molecular target: T1, GroEL chaperonin ( (purified from Escherichia …, UniProt P0A6F5 1-548))
T1 construct: GroEL chaperonin, purified from Escherichia coli cells (HB101 strain) after expression of the plasmid pGroE4
Test: fluorescence polarisation; 30×10^-9 M denatured fluorescein-labeled protein titrated with GroEL in 20 mM Tris–HCl, pH 7.5, 20 mM DTT, 10 mM MgCl2, 300 mM NaCl; apparent constant, counted on GroEL cavities
Conditions: both partners purified

T1 sequence (P0A6F5 whole entry): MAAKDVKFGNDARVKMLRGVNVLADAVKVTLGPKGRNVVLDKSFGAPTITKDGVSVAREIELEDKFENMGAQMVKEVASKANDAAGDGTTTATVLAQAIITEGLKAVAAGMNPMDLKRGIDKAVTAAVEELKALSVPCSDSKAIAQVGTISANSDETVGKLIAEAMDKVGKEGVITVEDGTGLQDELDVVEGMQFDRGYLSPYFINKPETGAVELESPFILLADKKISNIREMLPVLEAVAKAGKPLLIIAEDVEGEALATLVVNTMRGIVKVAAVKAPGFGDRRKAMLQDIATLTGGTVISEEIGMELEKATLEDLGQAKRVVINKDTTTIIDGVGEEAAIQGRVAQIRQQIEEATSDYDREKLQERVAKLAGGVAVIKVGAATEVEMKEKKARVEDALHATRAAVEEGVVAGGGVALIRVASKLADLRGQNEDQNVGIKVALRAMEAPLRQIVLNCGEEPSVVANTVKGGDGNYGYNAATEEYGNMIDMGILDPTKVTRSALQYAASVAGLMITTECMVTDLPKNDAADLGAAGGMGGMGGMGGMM

Kd: 1.6 nM
B1: fluorescein-labeled human α-lactalbumin (natural protein, UniProt P00709 20-142, looked up)
chain: KQFTKCELSQLLKDIDGYGGIALPELICTMFHTSGYDTQAIVENNESTEYGLFQISNKLWCKSSQVPQSRNICDISCDKFLDDDITDDIMCAKKILDIKGIDYWLAHKALCTEKLEQWLCEKL
modifications: fluorescein label (fluorescein isothiocyanate), position not stated
notes: Human α-lactalbumin; The same labelled protein was used native (20 mM Tris-HCl, pH 7.5) and denatured (buffer with 20 mM DTT); the assays tell the two states apart; also called native α-lactalbumin; denatured α-lactalbumin; source: bought: Sigma (USA), used without additional purification; labelled with fluorescein isothiocyanate, PD-10 and MonoQ
